Assay [1] concerns the target T1, MAdCAM-IgG1 Fc fusion protein (human).
T1 construct: Made in CHO-DHFR cells; also called MAdCAM-IgFc
Nature of the assay: SPR BIAcore protocol 2: mAb amine-coupled, MAdCAM-IgG1 Fc injected. The method, then: Affinity-purified mAb were immobilized onto the dextran layer of a CMS biosensor chip using amine coupling. […] Samples of MAdCAM-IgG₁ Fc fusion protein in running buffer were prepared at concentrations ranging from 0.2-55 nM (a 0 nM solution comprising running buffer alone was included as a zero reference). Samples were randomized and injected in duplicate for 3 mM each across 4 flow cells using HBS-EP (10 mM HEPES pH 7.4, 150 mM NaCl, 3 mM EDTA, 0.005% Surfactant P20) as running buffer. A flow rate of 100 μL/min was used to minimize mass transport limitations. Dissociation of MAdCAM-IgG₁ Fc fusion protein was monitored for 180 mins, the surface regenerated by a 6 sec injection of 25 mM H₃PO₄ (50 μL/min), or 10 mM (6.22.2), 20 mM (6.67.1, 6.73.2, 6.77.1) to 25 mM (6.34.2) and 45 mM NaOH (6.14.2) and the data analysed using the BIAevaluation (v3.1) software package.

The target in assay [2] is T1, MAdCAM-IgG1 Fc fusion protein. Nature of the assay: cell-based or functional assay.
The next assay has as its target T2, recombinant mouse MAdCAM (mouse, UniProt Q61826 22-365).
T2 sequence (looked up): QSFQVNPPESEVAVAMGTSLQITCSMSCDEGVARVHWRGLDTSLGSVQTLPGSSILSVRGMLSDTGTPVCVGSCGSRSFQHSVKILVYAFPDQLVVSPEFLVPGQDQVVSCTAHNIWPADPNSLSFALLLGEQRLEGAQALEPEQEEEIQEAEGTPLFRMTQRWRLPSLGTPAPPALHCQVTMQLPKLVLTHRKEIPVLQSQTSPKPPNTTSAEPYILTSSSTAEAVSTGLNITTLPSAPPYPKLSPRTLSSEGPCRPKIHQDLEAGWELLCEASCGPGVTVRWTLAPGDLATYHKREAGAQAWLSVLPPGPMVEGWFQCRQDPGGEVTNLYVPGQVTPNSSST
Nature of the assay: ELISA.

Assay [3] deals with T3, chimeric cynomolgus/human MAdCAM (cynomolgus; human, UniProt Q13477 226-382, limits assumed).
T3 sequence: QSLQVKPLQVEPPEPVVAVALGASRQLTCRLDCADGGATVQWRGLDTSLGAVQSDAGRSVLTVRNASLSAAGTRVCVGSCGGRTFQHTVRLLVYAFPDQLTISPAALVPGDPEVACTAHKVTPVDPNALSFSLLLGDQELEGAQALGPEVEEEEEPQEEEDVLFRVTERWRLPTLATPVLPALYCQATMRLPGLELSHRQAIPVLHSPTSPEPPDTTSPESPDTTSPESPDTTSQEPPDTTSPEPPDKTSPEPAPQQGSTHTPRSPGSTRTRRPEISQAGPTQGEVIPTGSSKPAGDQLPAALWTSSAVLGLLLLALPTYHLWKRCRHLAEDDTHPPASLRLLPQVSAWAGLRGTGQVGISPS
The assay can be described thus: cell-based or functional assay.

The target of assay [4] is T1, MAdCAM-IgG1 Fc fusion protein. The assay can be described thus: SPR BIAcore protocol 1: mAb captured, MAdCAM-IgG1 Fc injected. On the procedure: To perform kinetic analyses, a high density mouse anti-human (IgG₂ and IgG₄) antibody surface over a CMS BIAcore sensor chip was prepared using routine amine coupling. Hybridoma supernatants were diluted 10, 5, 2-fold in HBS-P (10 mM HEPES pH 7.4, 150 mM NaCl, 0.005% Surfactant P20) running buffer containing 100 μg/mL BSA and 10 mg/mL carboxymethyldextran or used neat. Each mAb was captured onto a separate surface using a […] contact time and a 5 mM wash for stabilization of the mAb baseline. MAdCAM-IgG₁ Fc (141 nM) fusion protein was then injected at over all surfaces for one minute, followed by a 3 mM dissociation. The data were normalized for the amount of antibody captured on each surface and evaluated with global fit Langmuir 1:1, using baseline drift models available on the BIAevaluation software provided by BIAcore.

Assay [5] shares this target. The assay can be described thus: cell-based or functional assay. This is another data set of the same source.
Assay [6] addresses T4, human MAdCAM (full length) (human, UniProt Q13477 19-382).
T4 sequence (looked up): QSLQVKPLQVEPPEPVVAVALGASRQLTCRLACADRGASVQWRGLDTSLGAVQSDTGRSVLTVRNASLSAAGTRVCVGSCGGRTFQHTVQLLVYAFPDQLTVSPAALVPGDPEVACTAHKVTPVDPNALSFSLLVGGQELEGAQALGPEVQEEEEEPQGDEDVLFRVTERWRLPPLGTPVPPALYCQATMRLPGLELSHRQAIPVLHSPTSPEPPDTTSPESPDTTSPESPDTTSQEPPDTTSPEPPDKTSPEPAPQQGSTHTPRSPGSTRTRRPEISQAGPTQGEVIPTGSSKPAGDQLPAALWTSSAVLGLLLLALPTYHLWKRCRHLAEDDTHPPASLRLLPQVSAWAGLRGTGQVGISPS
Nature of the assay: cell-based or functional assay.

Results on six molecules are retold here after US20190300605A1 (Pfizer, published 2019).

B1: anti-MAdCAM monoclonal antibody 6.34.2 (antibody, human IgG4, kappa, V domains shown)
VH: QVQLVESGGGVVQPGRSLRLSCAASGFTFSSYGMHWVRQAPGKGLEWVAVISNDGNNKYYADSVKGRFTISRDNSKNTLYLQMNSLSAEDTAVYYCARDSTAITYYYYGMDVWGQGTTVTVSS
VL: DIQMTQSPSSLSASVGDRVTITCRASQNISSYLNWFQQKPGKAPKLLIYAASGLKRGVPSRFSGSGSGTDFTLTIRTLQPDDFATYSCHQSYSLPFTFGPGTKVDIKR
notes: human IgG4 kappa from hybridoma 6.34.2
With B1, in assay [1], the equilibrium dissociation constant (Kd) was less than 0.015 nM, the koff was less than 5e-06 s⁻¹ and the on-rate (kon) stood at 330000 M⁻¹ s⁻¹. Also, the “MAdCAM IgG1 Fc fusion Assay Mean IC50 (Parent)” value in assay [2] came out at 0.013 µg/mL. In addition, the binding result with recombinant mouse MAdCAM is recorded as “no binding”. Moreover, the “Functional IC50, cynomolgus/human MAdCAM-CHO/JY adhesion assay” value in assay [3] worked out at 0.47 µg/mL. Besides, in assay [4], the affinity, expressed as Kd, was 0.0158 nM; the koff came to 1.9e-05 s⁻¹; the kon was 1.2e+06 M⁻¹ s⁻¹. Further, the “Mean IC50, JY cell adhesion to MAdCAM IgG1 Fc fusion” value (shortened to “Mean IC50 … to MAdCAM IgG1 Fc fusion”) in assay [5] was 0.013 µg/mL. Also, the “Mean IC50, JY cell adhesion, MAdCAM FlpIn CHO Assay” value (shortened to “Mean IC50 … MAdCAM FlpIn CHO Assay”) in assay [6] was 0.285 µg/mL.

B2: anti-MAdCAM monoclonal antibody 7.20.5 (antibody, human IgG2, kappa, V domains shown)
VH: QVQLQESGPGLVKPSETLSLTCTVSGSSISSYHWNWIRQPAGKGLEWIGRIYTSGSTNYNPSLKSRVTMSLDTSKNQFSLKLSSVTAADTAVYYCAREGVRYYYASGSYYYGLDVWGQGTTVTVSS
VL: not shown
notes: human IgG2 kappa from hybridoma 7.20.5
In assay [1], B2 displayed a Kd of 0.075 nM, an off-rate (koff) of 1.2e-05 s⁻¹ and a kon of 160000 M⁻¹ s⁻¹. In the assay with recombinant mouse MAdCAM, the binding result is listed as “no binding”. In addition, the “Functional IC50, cynomolgus/human MAdCAM-CHO/JY adhesion assay” value in assay [3] worked out at 0.62 µg/mL. For the same molecule, in assay [4], binding was put at a Kd of 0.0422 nM, the koff was found to be 1.9e-05 s⁻¹ and the kon amounted to 450000 M⁻¹ s⁻¹. Moreover, the “Mean IC50 … to MAdCAM IgG1 Fc fusion” value in assay [5] worked out at 0.025 µg/mL. Further, the “Mean IC50 … MAdCAM FlpIn CHO Assay” value in assay [6] worked out at 0.387 µg/mL.

B3: anti-MAdCAM monoclonal antibody 6.22.2 (antibody, human IgG4, kappa, V domains shown)
VH: QVQLVESGGGVVQPGRSLRLSCAASGHTFSSDGMHWVRQAPGKGLEWVAIIWYDGSNKYYADSVKGRFTISRDNSKNTLYLQMNSLRAEDTAVYYCARDPGYYYGMDVWGQGTTVTVSS
VL: EIVLTQSPDFQSVTPKEKVTITCRASQRIGSSLHWYQQKPDQSPKLLIKYASQSFSGVPSRFSGSGSGTNFTLTINGLEAEDAATYYCHQSGRLPLTFGGGTKVEIKR
notes: human IgG4 kappa from hybridoma 6.22.2
In assay [1], B3 displayed a Kd of 0.0038 nM, an off-rate constant (koff) of 8.7e-07 s⁻¹ and a kon of 230000 M⁻¹ s⁻¹. The “MAdCAM IgG1 Fc fusion Assay Mean IC50 (Parent)” value in assay [2] turned out to be 0.018 µg/mL. Besides, in the assay with recombinant mouse MAdCAM, the binding result is “no binding”. Moreover, the “Functional IC50, cynomolgus/human MAdCAM-CHO/JY adhesion assay” value in assay [3] was determined as 0.83 µg/mL. Further, in assay [4], the dissociation constant Kd came out at 0.0093 nM, the dissociation rate constant (koff) was 1.4e-05 s⁻¹ and the on-rate (kon) was 1.5e+06 M⁻¹ s⁻¹. The “Mean IC50 … to MAdCAM IgG1 Fc fusion” value in assay [5] worked out at 0.018 µg/mL. The “Mean IC50 … MAdCAM FlpIn CHO Assay” value in assay [6] came to 0.573 µg/mL.

B4: anti-MAdCAM monoclonal antibody 6.67.1 (antibody, human IgG4, kappa, V domains shown)
VH: QVQLQESGPGLVKPSETLSLTCTVSGDSISSNYWSWIRQPAGKGLEWIGRIYTSGGTNSNPSLRGRVTILADTSKNQFSLKLSSVTAADTAVYYCARDRITIIRGLIPSFFDYWGQGTLVTVSS
VL: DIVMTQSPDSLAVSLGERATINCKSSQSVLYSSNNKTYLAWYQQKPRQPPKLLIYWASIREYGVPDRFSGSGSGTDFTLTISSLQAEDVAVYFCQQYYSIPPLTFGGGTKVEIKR
notes: human IgG4 kappa from hybridoma 6.67.1
Turning to B4, in assay [1], the Kd was less than 0.02 nM, the off-rate (koff) was less than 5e-06 s⁻¹ and the kon was 240000 M⁻¹ s⁻¹. Besides, in assay [2], the “MAdCAM IgG1 Fc fusion Assay Mean IC50 (Parent)” value stood at 0.013 µg/mL. In addition, the binding result with recombinant mouse MAdCAM was “no binding”. Also, the “Functional IC50, cynomolgus/human MAdCAM-CHO/JY adhesion assay” value in assay [3] turned out to be 0.75 µg/mL. In addition, in assay [4], the equilibrium dissociation constant (Kd) was not above 0.017 nM, the off-rate constant (koff) was not above 1e-05 s⁻¹ and the kon worked out at 590000 M⁻¹ s⁻¹. Moreover, in assay [5], the “Mean IC50 … to MAdCAM IgG1 Fc fusion” value was determined as 0.013 µg/mL. For the same molecule, the “Mean IC50 … MAdCAM FlpIn CHO Assay” value in assay [6] is 0.298 µg/mL.

B5: anti-MAdCAM monoclonal antibody 9.8.2 (antibody, human IgG4, kappa, V domains shown)
VH: QVQLVESGGGVVQPGRSLRLSCAASGFTFSSYGMHWVRQAPGKGLEWVAVIWYDGSNEYYADSVKGRFTISRDNSKNTLYLQMNSLRAEDTAVYYCARGAYHFAYWGQGTLVTVSS
VL: DIQMTQSPSSLSASVGDRVTITCQASQDISNYLNWYQQKPGKAPKLLIYDASNLETGVPSRFSGSGSGTDFTFTISSLQPEDIATYSCQHSDNLSITFGQGTRLEIKR
notes: human IgG4 kappa from hybridoma 9.8.2
With B5, in assay [1], the affinity, expressed as Kd, was 0.0325 nM; the dissociation rate constant (koff) amounted to 1.4e-05 s⁻¹; the kon came out at 440000 M⁻¹ s⁻¹. In the assay with recombinant mouse MAdCAM, the binding result is given as “no binding”. In assay [3], the “Functional IC50, cynomolgus/human MAdCAM-CHO/JY adhesion assay” value was 0.83 µg/mL. In assay [4], this molecule registered a Kd of 0.1 nM, a koff of 0.00023 s⁻¹ and an association rate constant (kon) of 2.3e+06 M⁻¹ s⁻¹. Further, the “Mean IC50 … to MAdCAM IgG1 Fc fusion” value in assay [5] is 0.02 µg/mL. Besides, the “Mean IC50 … MAdCAM FlpIn CHO Assay” value in assay [6] was 0.44 µg/mL.

B6: anti-MAdCAM monoclonal antibody 7.26.4 (antibody, human IgG2, kappa, V domains shown)
VH: QVQLVQSGAEVKKPGASVKVSCEASGYTFTSYGIDWVRQAPGQGLEWMGWISVYSGNTNYAQKLQGRVTMSTDTSTSTAYMELRSLRSDDTAVYYCAREGSSSSGDYYYGMDVWGQGTTVTVSS
VL: DIVMTQTPLSLSVTPGQPASISCKSNQSLLYSDGKTYLFWYLQKPGQPPQLLIYEVSNRFSGVPDRFSGSGSGTDFTLKISRVEAEDVGVYYCMQSIQLPWTFGQGTKVEIKR
notes: human IgG2 kappa from hybridoma 7.26.4
In assay [1], B6 yielded a dissociation constant Kd of 0.08 nM, a koff of 1.2e-05 s⁻¹ and a kon of 150000 M⁻¹ s⁻¹. In addition, the “MAdCAM IgG1 Fc fusion Assay Mean IC50 (Parent)” value in assay [2] came out at 0.021 µg/mL. Moreover, the binding result with recombinant mouse MAdCAM is recorded as “no binding”. The “Functional IC50, cynomolgus/human MAdCAM-CHO/JY adhesion assay” value in assay [3] stood at 0.96 µg/mL. In assay [4], this molecule came in with a dissociation constant Kd of 0.271 nM, a koff of 0.00026 s⁻¹ and a kon of 960000 M⁻¹ s⁻¹. The “Mean IC50 … to MAdCAM IgG1 Fc fusion” value in assay [5] came to 0.021 µg/mL. The “Mean IC50 … MAdCAM FlpIn CHO Assay” value in assay [6] was 0.574 µg/mL.
